Data from publication PMC6355003.

B1: Drp1 (dynamin-related protein Drp1), wild type [not stated] / GST-MiD51^133-463, wild type [human] (parent)
chain 1: MEALIPVINKLQDVFNTVGADIIQLPQIVVVGTQSSGKSSVLESLVGRDLLPRGTGIVTRRPLILQLVHVSQEDKRKTTGEENGVEAEEWGKFLHTKNKLYTDFDEIRQEIENETERISGNNKGVSPEPIHLKIFSPNVVNLTLVDLPGMTKVPVGDQPKDIELQIRELILRFISNPNSIILAVTAANTDMATSEALKISREVDPDGRRTLAVITKLDLMDAGTDAMDVLMGRVIPVKLGIIGVVNRSQLDINNKKSVTDSIRDEYAFLQKKYPSLANRNGTKYLARTLNRLLMHHIRDCLPELKTRINVLAAQYQSLLNSYGEPVDDKSATLLQLITKFATEYCNTIEGTAKYIETSELCGGARICYIFHETFGRTLESVDPLGGLNTIDILTAIRNATGPRPALFVPEVSFELLVKRQIKRLEEPSLRCVELVHEEMQRIIQHCSNYSTQELLRFPKLHDAIVEVVTCLLRKRLPVTNEMVHNLVAIELAYINTKHPDFADACGLMNNNIEEQRRNRLARELPSAVSRDKVASGGGGVGDGVQEPTTGNWRGMLKTSKAEELLAEEKSKPIPIMPASPQKGHAVNLLDVPVPVARKLSAREQRDCEVIERLIKSYFLIVRKNIQDSVPKAVMHFLVNHVKDTLQSELVGQLYKSSLLDDLLTESEDMAQRRKEAADMLKALQGASQIIAEIRETHLW
chain 2: MSLQEKLLTYYRNRAAIPAGEQARAKQAAVDICAELRSFLRAKLPDMPLRDMYLSGSLYDDLQVVTADHIQLIVPLVLEQNLWSCIPGEDTIMNVPGFFLVRRENPEYFPRGSSYWDRCVVGGYLSPKTVADTFEKVVAGSINWPAIGSLLDYVIRPAPPPEALTLEVQYERDKHLFIDFLPSVTLGDTVLVAKPHRLAQYDNLWRLSLRPAETARLRALDQADSGCRSLCLKILKAICKSTPALGHLTASQLTNVILHLAQEEADWSPDMLADRFLQALRGLISYLEAGVLPSALNPKVNLFAELTPEEIDELGYTLYCSLSEPEVLLQT

Variants of: B1
Experiment: GST pull-down, SDS-PAGE band quantification
Settings: with GST-MiD51^133-463, wild type [human], read off a plot
[1] = Apo (no nucleotide), parent: 0.15

response (1 mM GDP-AlFx, parent: 0.085) [molar ratio]	response (1 mM GDP, parent: 0.14) [molar ratio]	response (1 mM GMP-PNP, parent: 0.69) [molar ratio]	response (1 mM GTP, parent: 0.37) [molar ratio]	response [1] [molar ratio]	response (parent: 0.15) [molar ratio]	Variant
0.34	0.36	0.43	0.4	0.36	0.36	chain 1 K38A
0.05	0.05	0.065	0.06	0.07	–	chain 1 G401A P402A R403A P404A
